# Results as given in patent publication US10753941B2, “Biocompatible nanoparticles with aggregation induced emission characteristics as fluorescent bioprobes and methods of using the same for in vitro and in vivo imaging” (The Hong Kong University of Science and Technology, priority 2011, dated 2020).
# Legend:
# [1] = Water solubility / aggregation of probes in water (LLS, PL); format: physicochemical; settings: inferred from weak fluorescence / LLS
# Text: FIG. 32A illustrates the UV-vis absorption spectra of BATPS (5) and TPS-2cRGD. Both have a similar absorption profile with the maximum at 356 nm. The corresponding photoluminescence (PL) spectra are shown in FIG. 32B, along with the photographs taken under UV irradiation. It is known that AIE fluorogens are virtually non-fluorescent in good solvents but emit intensely when aggregated in poor solvents.
# It is well known that AIE dye is virtually non-luminescent in good solvents but emits intensely when aggregated in its poor solvents. […] The excited states are readily annihilated by the intramolecular rotations of phenyl rings. Therefore, very low fluorescence was observed.
# caspase-3 = biological target: T1, caspase-3 (Homo sapiens, UniProt P42574); test: Caspase-3 turn-on and hydrolysis of E/Z-TPE-2DEVD; format: biochemical
# T1 construct: purchased R&D Systems
# T1 sequence (P42574 29-175 limits assumed): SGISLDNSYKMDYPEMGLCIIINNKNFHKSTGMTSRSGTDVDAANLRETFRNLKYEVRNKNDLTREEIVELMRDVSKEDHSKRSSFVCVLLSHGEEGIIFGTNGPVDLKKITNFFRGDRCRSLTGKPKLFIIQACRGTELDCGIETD
# T1 sequence (P42574 176-277 limits assumed): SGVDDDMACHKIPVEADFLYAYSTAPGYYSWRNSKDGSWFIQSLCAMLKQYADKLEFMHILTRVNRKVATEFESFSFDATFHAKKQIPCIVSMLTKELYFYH
# Procedure: Both have a similar absorption profile with an obvious absorbance in the 270-380 nm range.
# The enzyme kinetic studies by incubating recombinant caspase-3 with E/Z-TPE-2DEVD in buffer at 37° C. were subsequently performed, and the changes in probe hydrolysis were monitored with HPLC. DMSO stock solutions of TPE-2DEVD were diluted with caspase-3assay buffer (50 mM PIPES, 100 mM NaCl, 1 mM EDTA, 0.1% w/v CHAPS, 25% w/v sucrose, pH=7.2) to make 10 μM working solutions. 5 μL of the recombinant caspase-3 (˜0.04 μg/μL stock solution in assay buffer) was added into the above working solution. The reaction mixture was incubated at room temperature for 60 min and was then diluted to a total of 300 μL with deionized water for photoluminescence measurement. The solution was excited at 312 nm, and the emission was collected from 360 to 600 nm.
# [2] = test system: caspase-3, pepsin, BSA, trypsin, papain and lysozyme; settings: protein 100 pM, identical conditions
# Procedure: To further investigate the probe selectivity, Z-TPE-2DEVD was treated with several proteins, such as caspase-3, pepsin, BSA, trypsin, papain and lysozyme, under identical conditions.
substance,measurement,setting,value
Z-TPE-2DEVD: stereoisomer of Asp-Glu-Val-Asp (DEVD) peptide-conjugated TPE probe (TPE-2DEVD),solubility in water,[1],good solubility in water
same,fluorescence turn-on with caspase-3,"caspase-3; 10 μM probe, PIPES buffer, caspase-3 100 pM, 37° C.",stronger fluorescence enhancement
same,rate of enzyme activated hydrolysis (HPLC),caspase-3; recombinant caspase-3 in buffer,slower hydrolysis rate
same,"probe selectivity, changes in (I−I0)/I0",[2],specific probe for caspase-3
